Source: PMC11340043

Biological target: human LIFR-his (human) (UniProt P42702)
Sequence (P42702 45-833): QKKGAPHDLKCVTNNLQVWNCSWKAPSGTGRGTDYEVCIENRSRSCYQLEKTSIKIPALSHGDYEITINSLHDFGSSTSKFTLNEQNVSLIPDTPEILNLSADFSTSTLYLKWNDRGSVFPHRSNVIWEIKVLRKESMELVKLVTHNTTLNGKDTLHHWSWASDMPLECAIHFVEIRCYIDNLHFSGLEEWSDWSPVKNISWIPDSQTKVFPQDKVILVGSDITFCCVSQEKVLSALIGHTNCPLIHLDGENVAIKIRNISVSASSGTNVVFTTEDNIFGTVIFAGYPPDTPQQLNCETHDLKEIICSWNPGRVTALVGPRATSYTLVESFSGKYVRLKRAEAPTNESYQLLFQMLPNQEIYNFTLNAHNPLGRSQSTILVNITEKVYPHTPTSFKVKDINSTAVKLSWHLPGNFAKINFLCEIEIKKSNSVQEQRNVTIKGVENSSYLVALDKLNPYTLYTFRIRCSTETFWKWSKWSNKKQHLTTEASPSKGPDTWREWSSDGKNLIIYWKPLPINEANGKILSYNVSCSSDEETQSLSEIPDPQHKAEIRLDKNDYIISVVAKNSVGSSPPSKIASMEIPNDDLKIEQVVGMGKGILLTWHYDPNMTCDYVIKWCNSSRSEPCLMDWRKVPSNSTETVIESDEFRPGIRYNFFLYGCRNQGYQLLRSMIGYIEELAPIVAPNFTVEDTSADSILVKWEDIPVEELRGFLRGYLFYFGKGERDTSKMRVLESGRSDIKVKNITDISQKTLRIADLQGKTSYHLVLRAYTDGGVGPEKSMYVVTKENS

human LIF, sequence (P15018 23-202): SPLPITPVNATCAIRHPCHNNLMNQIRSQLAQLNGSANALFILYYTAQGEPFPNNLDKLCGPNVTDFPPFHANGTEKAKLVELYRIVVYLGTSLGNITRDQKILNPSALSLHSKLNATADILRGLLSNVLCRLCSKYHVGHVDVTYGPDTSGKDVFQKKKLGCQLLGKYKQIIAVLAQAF

LIF-induced p-STAT3 (Tyr705) in U266 and HCT116 cells, western blot; dose-dependent inhibition by antibody 1G11, inhibition rate at 2 µg/ml 1G11: > 90%
Substance: human LIF (from UniProt P15018 23-202) (ligand)
